# From IntAct's records for PubMed 17785451
# B1: CBL-interacting serine/threonine-protein kinase 24 (Arabidopsis thaliana (Mouse-ear cress)), Q9LDI3 (parent)
# chain: MTKKMRRVGKYEVGRTIGEGTFAKVKFARNTDTGDNVAIKIMAKSTILKNRMVDQIKREISIMKIVRHPNIVRLYEVLASPSKIYIVLEFVTGGELFDRIVHKGRLEESESRKYFQQLVDAVAHCHCKGVYHRDLKPENLLLDTNGNLKVSDFGLSALPQEGVELLRTTCGTPNYVAPEVLSGQGYDGSAADIWSCGVILFVILAGYLPFSETDLPGLYRKINAAEFSCPPWFSAEVKFLIHRILDPNPKTRIQIQGIKKDPWFRLNYVPIRAREEEEVNLDDIRAVFDGIEGSYVAENVERNDEGPLMMNAFEMITLSQGLNLSALFDRRQDFVKRQTRFVSRREPSEIIANIEAVANSMGFKSHTRNFKTRLEGLSSIKAGQLAVVIEIYEVAPSLFMVDVRKAAGETLEYHKFYKKLCSKLENIIWRATEGIPKSEILRTITF
# partner: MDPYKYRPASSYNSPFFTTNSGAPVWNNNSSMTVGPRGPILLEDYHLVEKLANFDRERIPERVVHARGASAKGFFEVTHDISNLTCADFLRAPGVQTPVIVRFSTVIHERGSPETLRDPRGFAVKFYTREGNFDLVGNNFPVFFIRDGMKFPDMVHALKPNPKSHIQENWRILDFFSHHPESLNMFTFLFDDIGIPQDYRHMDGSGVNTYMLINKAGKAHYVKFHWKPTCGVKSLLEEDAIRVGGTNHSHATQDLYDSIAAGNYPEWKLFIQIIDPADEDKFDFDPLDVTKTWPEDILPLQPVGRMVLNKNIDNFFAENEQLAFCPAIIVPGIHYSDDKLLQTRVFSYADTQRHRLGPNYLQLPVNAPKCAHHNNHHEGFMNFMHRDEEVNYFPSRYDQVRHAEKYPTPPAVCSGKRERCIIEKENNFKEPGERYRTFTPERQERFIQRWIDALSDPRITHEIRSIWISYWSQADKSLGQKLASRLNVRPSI
# Variants of: B1
# Conditions: with cata2_arath CAT2, P25819
row,Variant,effect of a mutation on the interaction
1,K40N,increasing interaction
